The results in this text go back to patent US20260085114A1 (KYINNO BIOTECHNOLOGY, published 2026).

In experiment [1] the target is T1, human GPRC5D (G protein-coupled receptor class C group 5 member D), on cells (human, UniProt Q9NZD1 1-345).
T1 construct: whole, on cells; also called hGPRC5D
Briefly: FACS on MM.1R multiple myeloma cells. The method, then: (§1) 100 μl of FACS buffer was then added to each FACS tube for resuspension. 5 μl of PE-labeled, anti-murine Fc tagged secondary antibody (Biolegend, catalog number 409304) was added according to instructions, and incubated at 4° C. in the dark for 30 mins. Then 1 ml of FACS buffer was added, and centrifuged at 1200 rpm at room temperature for 5 mins. The supernatant was discarded followed by washing three times.
(§2) The experimental process was as described in Example 4, and the cells used were replaced with multiple myeloma cells MM.1R (Kyinno, catalog number KC-0619) and MOLP8 (Kyinno, catalog number KC-0622). […] Control tube 1 (no antibody and secondary antibody, adding only cell suspension) and Control tube 2 (no antibody, adding only cell suspension and secondary antibody) were included.

Experiment [2] has as its target T2, human GPRC5D protein (KACTUS, catalog number GPR-HM05P) (human, UniProt Q9NZD1 1-345, limits assumed).
T2 construct: Bought reagent used as analyte in the Fortebio assay; the construct is not described
Briefly: Fortebio BLI, antibody captured on AHC chip, human GPRC5D protein as analyte. The method, then: Antibodies to be tested were prepared into solutions at concentration of 10 μg/mL using PBS buffer, and the antibodies were captured using the AHC chip according to Fortebio's instructions. The pre-prepared human GPRC5D proteins (KACTUS, catalog number GPR-HM05P) (protein starting at a highest concentration of 200 nM, 2-fold diluted, 6 gradients) were flowed through the chip, with the following specific conditions: flow rate 30 μl/min; antigen-antibody binding time 200 seconds, dissociation time 500 seconds. The measured results were fitted using the supporting software designed for the device to analyze the affinity between an antibody and an antigen.
(In general: In BLI a coated tip is dipped into the sample, and binding shifts an interference pattern.)

Experiment [3] concerns the target T3, human GPRC5B, on 293T cells (human, UniProt Q9NZH0 29-403).
T3 construct: whole, on cells; also called 293T-GPRC5B
As to the kind of experiment: FACS on 293T-GPRC5B cells, antibody at 2 µg/mL; control tubes 8.55 and 8.26. Here is the method: as §1
(§3) The experimental process was as described in Example 4, cells expressing other members of G protein-coupled receptor class C group 5 as follows were used: 293T cells expressing human GPRC5A, 293T-GPRC5A (Kyinno, catalog number KC-1888), 293T cells expressing human GPRC5B, 293T-GPRC5B (Kyinno, catalog number KC-1854), and 293T cells expressing human GPRC5C, 293T-GPRC5C (Kyinno, catalog number KC-1889). […] Control tube 1 (no antibody and secondary antibody, adding only cell suspension) and Control tube 2 (no antibody, adding only cell suspension and secondary antibody) were included.

Experiment [4] concerns the target T1, human GPRC5D (G protein-coupled …). Briefly: cell-based or functional assay.
The target in experiment [5] is T4, human GPRC5A, on 293T cells (human, UniProt Q8NFJ5 1-357).
T4 construct: whole, on cells; also called 293T-GPRC5A
As to the kind of experiment: FACS on 293T-GPRC5A cells, antibody at 2 µg/mL; control tubes 8.30 and 8.41. The method, then: as §1, §3

The target in experiment [6] is T5, human GPRC5C, on 293T cells (human, UniProt Q9NQ84 24-441).
T5 construct: whole, on cells; also called 293T-GPRC5C
As to the kind of experiment: FACS on 293T-GPRC5C cells, antibody at 2 µg/mL; control tubes 8.86 and 8.73. Here is the method:
as §1, §3

For experiment [7], the target named is T6, monkey (cyno) GPRC5D, on 293T cells (monkey (cyno)).
T6 construct: whole, on cells; also called monkey GPRC5D
As to the kind of experiment: FACS on 293T cells expressing monkey (cyno) GPRC5D. The method, then: as §1
The experimental process was as described in Example 4. […] Control tube 1 (no antibody and secondary antibody, adding only cell suspension) and Control tube 2 (no antibody, adding only cell suspension and secondary antibody) were included.

For experiment [8], the target named is T1, human GPRC5D (G protein-coupled …). Briefly: FACS on 293T cells expressing human GPRC5D. The method, then:
as §1
Control tube 1 (no antibody and secondary antibody, adding only the cell suspension) and Control tube 2 (no antibody, adding only the cell suspension and the secondary antibody) were included.

Experiment [9] shares this target. Briefly: FACS on MOLP8 multiple myeloma cells. Here is the method: as §1, §2
Experiment [10] concerns the target human CD3 protein (KACTUS) (human). Briefly: Fortebio BLI, antibody captured on AHC chip, human CD3 protein as analyte.

Substitutions are numbered along the chain they refer to.

T3 sequence (Q9NZH0 29-403): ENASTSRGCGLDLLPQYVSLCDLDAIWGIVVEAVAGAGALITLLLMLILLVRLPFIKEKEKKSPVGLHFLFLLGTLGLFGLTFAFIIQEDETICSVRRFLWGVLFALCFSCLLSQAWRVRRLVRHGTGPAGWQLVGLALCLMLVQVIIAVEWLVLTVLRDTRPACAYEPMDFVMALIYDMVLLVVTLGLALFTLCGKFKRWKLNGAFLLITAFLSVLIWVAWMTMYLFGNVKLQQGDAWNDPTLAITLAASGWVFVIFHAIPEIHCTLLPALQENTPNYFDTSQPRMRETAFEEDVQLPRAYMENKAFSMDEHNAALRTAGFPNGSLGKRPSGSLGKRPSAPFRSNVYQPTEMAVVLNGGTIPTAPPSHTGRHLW
T2 sequence (Q9NZD1 whole entry): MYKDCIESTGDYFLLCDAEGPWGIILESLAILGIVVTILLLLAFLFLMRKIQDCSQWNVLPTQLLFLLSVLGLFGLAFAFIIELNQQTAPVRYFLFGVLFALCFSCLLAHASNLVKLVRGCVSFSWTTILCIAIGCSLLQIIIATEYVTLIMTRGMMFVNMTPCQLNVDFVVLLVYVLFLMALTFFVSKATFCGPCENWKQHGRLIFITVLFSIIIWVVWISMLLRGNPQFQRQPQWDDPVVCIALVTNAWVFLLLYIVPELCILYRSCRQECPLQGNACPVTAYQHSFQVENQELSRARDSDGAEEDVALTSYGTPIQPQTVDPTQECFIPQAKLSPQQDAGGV
T1 sequence (Q9NZD1 whole entry): as above
T4 sequence (Q8NFJ5 whole entry): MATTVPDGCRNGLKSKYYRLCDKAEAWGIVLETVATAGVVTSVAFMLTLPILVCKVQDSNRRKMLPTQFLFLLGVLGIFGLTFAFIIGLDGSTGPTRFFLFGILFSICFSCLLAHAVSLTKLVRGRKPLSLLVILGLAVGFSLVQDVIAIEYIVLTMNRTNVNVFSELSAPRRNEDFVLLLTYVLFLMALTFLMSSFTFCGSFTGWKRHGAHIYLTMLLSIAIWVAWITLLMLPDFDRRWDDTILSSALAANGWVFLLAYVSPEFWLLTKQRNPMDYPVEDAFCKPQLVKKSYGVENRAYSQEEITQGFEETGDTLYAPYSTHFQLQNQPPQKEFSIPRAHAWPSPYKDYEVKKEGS
T5 sequence (Q9NQ84 24-441): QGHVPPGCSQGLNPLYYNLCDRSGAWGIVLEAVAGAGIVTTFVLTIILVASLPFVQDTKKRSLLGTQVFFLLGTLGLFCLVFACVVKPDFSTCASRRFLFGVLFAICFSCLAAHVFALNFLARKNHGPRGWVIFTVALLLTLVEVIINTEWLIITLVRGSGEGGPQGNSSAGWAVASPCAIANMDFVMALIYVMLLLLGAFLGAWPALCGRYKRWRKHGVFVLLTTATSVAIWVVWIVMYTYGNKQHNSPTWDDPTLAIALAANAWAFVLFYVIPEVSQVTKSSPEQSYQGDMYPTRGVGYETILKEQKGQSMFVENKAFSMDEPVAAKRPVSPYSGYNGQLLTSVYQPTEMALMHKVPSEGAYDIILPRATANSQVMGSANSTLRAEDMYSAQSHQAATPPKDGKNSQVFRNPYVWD
human CD3 protein (KACTUS) (human), sequence (chain, as listed by the source): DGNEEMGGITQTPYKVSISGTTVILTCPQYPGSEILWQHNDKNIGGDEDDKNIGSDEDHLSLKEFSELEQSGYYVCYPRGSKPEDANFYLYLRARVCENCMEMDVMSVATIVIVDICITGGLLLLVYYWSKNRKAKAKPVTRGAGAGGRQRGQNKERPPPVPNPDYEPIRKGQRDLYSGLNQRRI

B1: humanized antibody 24F5 (hz) (antibody, V domains shown)
VH: QVQLVQSGAEVKKPGASVKVSCKASGYTFPYYVMHWVRQAPGQGLEWIGYINPYNDGTKYNEKFKGRATLTSDKSTSTAYMELSSLRSEDTAVYYCARGGVRRYFDYWGQGTTVTVSS
VL: DIQMTQSPSTLSASVGDRVTITCRASQDIGSNLNWLQQKPGGTIKRLIYATSSLDSGVPSRFSGSRSGSEYTLTISSLQPDDFATYYCLQYATFPYTFGQGTRLEIKR
One may read the EC50 as the concentration giving half of the maximal effect. In general, Kd refers to the equilibrium constant for the complex coming apart. Broadly, the koff is a measure of how fast the partners let go of each other. One may read the kon as the second-order rate constant of association. Take B1: the EC50 in [1] is 0.0682 µg/mL; in [7], 0.167 µg/mL; in [8] it was 0.7 µg/mL; in [9] it was 0.581 µg/mL. The MFI.Max in [1] turned out to be 177 MFI; in experiment [7] it was 3560 MFI; in experiment [8], 8910 MFI; in experiment [9], 133 MFI. The affinity in experiment [2], expressed as Kd, was 1.36 nM. For the same molecule, the koff in [2] was determined as 5.42e-05 s⁻¹. The same molecule had a kon in experiment [2] of 39900 M⁻¹ s⁻¹. Besides, the FACS result in experiment [3] was 8.58; in experiment [5] it was 8.45; in experiment [6] it was 8.97. Further, in experiment [4], the “ADCC reporter (Jurkat-NFAT-luc-CD16-V158 luciferase), Top” value (“ADCC reporter … Top” below) came to 25.4.

B2: humanized antibody 6E97 (hz) (antibody, V domains shown)
VH: B1 VH with M34I, D56A
VL: B1 VL with M4L, Y49S
For the molecule B2, the concentration for a half-maximal effect (EC50) in [1] turned out to be 0.146 µg/mL; in [7], 0.192 µg/mL; in [8], 0.351 µg/mL; in experiment [9], 0.256 µg/mL. In addition, the MFI.Max in experiment [1] is 246 MFI; in experiment [7], 6250 MFI; in experiment [8], 14800 MFI; in experiment [9], 144 MFI. In addition, the Kd in [2] came out at 0.458 nM. Besides, the off-rate constant (koff) in [2] turned out to be 2.08e-05 s⁻¹. Moreover, in [2], the kon came to 45500 M⁻¹ s⁻¹. For the same molecule, the FACS result in [3] stood at 8.62; in experiment [5], 8.54; in [6] it was 8.78. Further, the “ADCC reporter … Top” value in experiment [4] is 32.8.

B3: humanized antibody 9D7 (hz) (antibody, V domains shown)
VH: QVQLQESGPGLVKPSETLSLTCTVSGYSITSDYAWNWIRQPPGKGLEWMGYISYSGSATYSPSLKSRITISRDTSKNQFSLKLSSVTAADTAVYYCARGGIAGRGRWGAMDYWGQGTTVTVSS
VL: DIQMTQSPSSLSASVGDRVTITCKASQNVGTNVAWYQQKPGQSPKALIYSASYRDSGVPDRFSGSGSGTDFTLTISSLQPEDFATYYCQQYKSYPLTFGQGTRLEIKR
In the case of B3, the half-maximal effective concentration (EC50) amounted to 0.09 µg/mL in experiment [1], 0.378 µg/mL in experiment [7], 0.283 µg/mL in experiment [8] and 0.313 µg/mL in experiment [9]. For the same molecule, the MFI.Max in experiment [1] worked out at 150 MFI; in experiment [7], 4260 MFI; in experiment [8], 8940 MFI; in experiment [9], 128 MFI. Further, in [2], the Kd was < 0.001 nM. Further, the off-rate constant (koff) in [2] is < 1e-07 s⁻¹. In addition, in experiment [2], the kon was found to be 22600 M⁻¹ s⁻¹. Also, the results for the FACS result in experiment [3], in [5] and in [6] were 8.54, 8.34 and 8.48, respectively. In addition, the “ADCC reporter … Top” value in experiment [4] was 24.5.

B4: humanized antibody 26D1 (hz) (antibody, V domains shown)
VH: QVQLVQSGAEVKKPGASVKVSCKASGYTFTSYTIQWIKQAPGQGLEWIGYIIPSSGYTNYNQKFKDKATLTADKSSNTAYMELSSLTSEDTAVYYCANNYGNWGFTYWGQGTTVTVSS
VL: DIQMTQSPSTLSASVGDRVTITCKASQNVGSAVTWYQQKPGKAPRLLIYSASNRYTGVPDRFSGSGSGTEFTLTISSLQPDDFATYFCQQYSNYPLTFGQGTRLEIKR
Take B4: the EC50 in experiment [1] is 0.571 µg/mL; in [8], 0.228 µg/mL; in experiment [9], 0.964 µg/mL. Moreover, the MFI.Max is 185 MFI in experiment [1], 12.3 MFI in [7], 9560 MFI in experiment [8] and 78 MFI in experiment [9]. The molecule also came in with a dissociation constant Kd in experiment [2] of 1.7 nM. The molecule further had a koff in experiment [2] of 3.15e-05 s⁻¹. In [2], the kon worked out at 18500 M⁻¹ s⁻¹. For the same molecule, the FACS result in [3] came to 8.59; in experiment [5], 8.46; in [6], 8.89. The “ADCC reporter (Jurkat-NFAT-luc-CD16-V158 luciferase), EC50” value in experiment [4] is 0.0452 µg/mL. Besides, in experiment [4], the “ADCC reporter … Top” value is 18.4.

B5: humanized anti-CD3 antibody SP34V1 (hz) (antibody, V domains shown)
VH: QVQLVESGGGLVKPGGSLRLSCAASGFTFSTYAMNWVRQAPGKGLEWVGRIRSKYNNYATYYADSVKDRFTISRDDAKNSLYLQMNSLRAEDTAVYYCARHGNFGNSYVSYFAYWGQGTTVTVSS
VL: DIQMTQSPSSLSASVGDRVTITCRSSTGAVTTSNYANWVQQKPGKAPKALIGGTNKRAPGVPSRFSGSLSGDDATLTISSLQPEDFATYYCALWYSNLWVFGQGTRLEIKR
In [10], B5 yielded a Kd of 18 nM, a koff of 0.00795 s⁻¹ and an on-rate constant (kon) of 442000 M⁻¹ s⁻¹.
